Reference: PMC11986948, “The carboxylesterase AtCXE12 converts volatile (Z)-3-hexenyl acetate to (Z)-3-hexenol in Arabidopsis leaves” (Plant Physiology, 2025)

B1: AtCXE12 (Arabidopsis thaliana) (protein)
chain: MDSEIAVDCSPLLKIYKSGRIERLMGEATVPPSSEPQNGVVSKDVVYSADNNLSVRIYLPEKAAAETDSKLPLLVYFHGGGFIIETAFSPTYHTFLTTSVSASNCVAVSVDYRRAPEHPISVPFDDSWTALKWVFTHITGSGQEDWLNKHADFSRVFLSGDSAGANIVHHMAMRAAKEKLSPGLNDTGISGIILLHPYFWSKTPIDEKDTKDETLRMKIEAFWMMASPNSKDGTDDPLLNVVQSESVDLSGLGCGKVLVMVAEKDALVRQGWGYAAKLEKSGWKGEVEVVESEGEDHVFHLLKPECDNAIEVMHKFSGFIKGGN
B2: AtCXE5 (Arabidopsis thaliana) (protein)
chain: MESEIASEFLPFCRIYKDGRVERLIGTDTIPASLDPTYDVVSKDVIYSPENNLSVRLFLPHKSTKLTAGNKLPLLIYIHGGAWIIESPFSPLYHNYLTEVVKSANCLAVSVQYRRAPEDPVPAAYEDVWSAIQWIFAHSNGSGPVDWINKHADFGKVFLGGDSAGGNISHHMAMKAGKEKKLDLKIKGIAVVHPAFWGTDPVDEYDVQDKETRSGIAEIWEKIASPNSVNGTDDPLFNVNGSGSDFSGLGCDKVLVAVAGKDVFVRQGLAYAAKLEKCEWEGTVEVVEEEGEDHVFHLQNPKSDKALKFLKKFVEFIIG

Legend:
Test in all cases: GC-MS of (Z)-3-hexenol formed, Michaelis-Menten fit
Format in all cases: biochemical, Arabidopsis thaliana
Conditions in all cases: 50 mM Tris-HCl pH 7.5, 30 °C, 10 min, 0.5 µM enzyme
[1] = substrate: CC/C=C\CCOC(C)=O
Excerpt: (§1) GC-MS of (Z)-3-hexenol formed, Michaelis-Menten fit on AtCXE12

[2] = substrate: CC/C=C\CCOC(=O)CCC
Excerpt: as §1

[3] = substrate: CC/C=C\CCOC(=O)CC
Excerpt: as §1

[4] = substrate: CC/C=C\CCOC(C)=O; remark: listed apart in the source
Excerpt: (§2) GC-MS of (Z)-3-hexenol formed, Michaelis-Menten fit on AtCXE5

[5] = substrate: CC/C=C\CCOC(=O)CCC; remark: listed apart in the source
Excerpt: as §2

[6] = substrate: CC/C=C\CCOC(=O)CC; remark: listed apart in the source
Excerpt: as §2

Row | Protein | Km [1] [µM] | kcat [1] [s⁻¹] | kcat/Km [1] [M⁻¹ s⁻¹] | Km [2] [µM] | kcat [2] [s⁻¹] | kcat/Km [2] [M⁻¹ s⁻¹] | Km [3] [µM] | kcat [3] [s⁻¹] | kcat/Km [3] [M⁻¹ s⁻¹] | Km [4] [µM] | kcat [4] [s⁻¹] | kcat/Km [4] [M⁻¹ s⁻¹] | Km [5] [µM] | kcat [5] [s⁻¹] | kcat/Km [5] [M⁻¹ s⁻¹] | Km [6] [µM] | kcat [6] [s⁻¹] | kcat/Km [6] [M⁻¹ s⁻¹]
1 | B1 | 5940 ± 840 | 3.78 | 640 | 460 ± 50 | 0.85 | 1860 | 2260 ± 340 | 2.25 | 990 |  |  |  |  |  |  |  |  | 
2 | B2 |  |  |  |  |  |  |  |  |  | 8630 ± 1280 | 3.17 | 380 | 240 ± 30 | 0.16 | 650 | 1450 ± 190 | 0.3 | 210
